Results published in patent US10550172B2, “Serpin reactive center loop peptides and methods of use” (University of Florida Research Foundation, Incorporated, priority 2015, dated 2020).
“Also recorded” adds a separate entry of the source. Where a SMILES comes first, the peptide text is derived from it. Where no end group is shown, it is not given here.

Tests used:
[1] = tested on: aortic allograft (plaque growth); test: Mouse aortic allograft transplant model
Description: To assess potential anti-inflammatory actions of individual serpin-derived peptides, peptide treatment was tested in mice after aortic allograft transplant at 4 weeks.
Ninety three mice had aortic allograft transplantation; 56 had PAI-1−/− (C57BL/6 background) donor to BALB/c (PAI-1+/+) recipient; and 37 had C57BL/6 wild type (PAI-1+/+) to BALB/c (PAI-1+/+) recipient. […] Due to the large number of surgeries required, both the PAI-1−/− and the WT mouse implants were utilized. The PAI-1−/− mice also allowed analysis of serpin response in a mouse transplant lacking a key thrombolysis regulating serpin, PAI-1. A 0.3 cm aortic segment isolated from the donor mouse was transplanted into the infra-renal aorta of recipient mice for aortic allograft studies (Table 1). The aortic transplant was anastomosed end-to-end using Sharpoint 11/0 nylon sutures (Surgical Specialties Corporation, Reiding, Mass., USA) under general anesthetic (6.5 mg/100 g body weight Somnotrol, MTC Pharmaceuticals, Cambridge, ON, Canada) given by intramuscular (i.m.) injection. WT C57BL/6 mice were purchased directly from Jackson Laboratories (Bar Harbor, Me., U.S.A.) and PAI-1−/− mice were bred in-house using mice supplied by Jackson Laboratories prior to surgery. Mice were followed for 4 weeks after transplant. […] Serpins or serpin-derived peptides were infused by intravenous (i.v.) tail vein injection immediately after transplant surgery, once aortic pulsation was again visible. At 4 weeks after aortic transplant, mice were euthanized with 0.05 ml euthanyl (Bimeda—MTC Animal Health Ltd., Cambridge, ON, Canada) by i.m. injection.
Donor aortic transplant implants and adjacent recipient aorta (0.5-0.6 cm long) were cut into two 0.25-0.3 cm pieces, fixed, paraffin embedded, and cut into 5 μm sections (two per aortic section, providing 4 sections for analysis of each transplanted mouse aorta) and stained with Haematoxylin and eosin for morphometric analysis. Areas of plaque, lumen and internal elastic lamina were measured by means of the Olympus application program using a Sony Power HAD3CCD color video camera attached to the microscope and calibrated to the microscope objective. The mean total cross sectional area of the intima, using sections with the largest detectable plaque area, was calculated for each aortic specimen. Numbers of invading mononuclear cells were counted per high powered field area at three sites in the intimal, medial and adventitial layers and the mean count for each arterial layer and specimen calculated.

[2] = tested on: PMA activated THP-1 monocytes; test: Membrane fluidity cell activation assay; type: cell-based, human; settings: peptides 500, 1000, 1500 ng/ml, Serp-1, NSP 500 ng/mL
Description: Cellular membrane fluidity is measured by pyrene dimer formation in the lipid bilayer and is used as a non-specific measure of cell activation (Zalai C V, et al. (2001) J Am Coll Cardiol 38: 1340-1347). Increases in THP-1 human monocyte membrane fluidity, after PMA activation, correlate with changes in cell activation, adhesion and motility. […] Serpin-derived peptide treatments paralleled in vivo activity with the one exception being the S-4 peptide. […] All serpin-derived peptides were tested at three doses 500, 1000 and 1500 ng/ml.
One million >95% viable THP-1, Jurkat T, or 5×10^5 HUVEC cells were labeled with BPP (0.8 μM) for studying core membrane fluidity, three hours prior to cell activation as previously described (Viswanathan K, et al. (2009) B. J Leukoc Biol 85: 418-426; Viswanathan K, et al. (2006) Thromb Haemost 95: 499-510; Zalai C V, et al. (2001) J Am Coll Cardiol 38: 1340-1347; Viswanathan K, et al. (2012) PLoS One 7: e44694; and Christov A, et al. (2001) Lasers Surg Med 28: 414-426). […] At the end of one hour, cells were washed to remove excess fluorescent probe and monomer, excimer fluorescence emission intensities were measured at 390 nm and 485 nm, respectively, during excitation at 320 nm using a fluorescent dual wavelength reader (Fluoroskan, Thermolab systems, Oy, USA). […]

[3] = in vivo; cited from earlier work
[4] = patients with acute unstable angina after stent implantation; cited from earlier work
[5] = biological target: T1, urokinase-type plasminogen activator (uPA) (Homo sapiens, UniProt P00749); test: uPA chromogenic enzyme activity assay; type: biochemical; settings: chromogenic protease activity assay
T1 construct: purchased Sigma U0633
Description: Activity of purified NSP and Serp-1 was measured as inhibitory activity for uPA, using a chromogenic assay (Assaypro, St. Louis, Mo., USA) as previously described (for example, see, Dai E, et al. (2003) J Biol Chem 278: 18563-18572). Serp-1, NSP or individual peptides were mixed with enzyme solution at room temperature for one hour, per the manufacturers protocol (American Diagnostics). After incubation, 10 μl of chromogenic substrate was added. The 96-well plate was covered and placed in a wet box for overnight incubation at 37° C. After a 17 hr incubation, the plate was read at 405 nm by microplate reader (Bio-Tek Instruments). Reaction buffer (100 mM NaCl, 2 mM CaCl2, 100 mM Tris-HCl, pH 7.5, Triton X-100, 0.005%) was used for dilutions of proteases, Serp-1, NSP, or serpin peptides and chromogenic substrate. Residual protease activity was calculated with comparison to control samples without active serpin or peptides.
Serpin inhibition activity of peptides was also assessed using assays for uPA, tPA, plamin, PAI-1 and anti-thrombin III (ATIII). […] Peptide inhibition of ATIII (ThermoFisher Scientific, Grand Island, N.Y.) was measured as a reduction in its thrombin activity. uPA (Sigma, U0633) activity towards pefachrome uPA (Enzyme Research Laboratories, South Bend, Ind., P082-33) was used for assaying peptide inhibition. […]

THP-1 monocytes = test: RT-PCR signaling pathway gene expression analysis, THP-1 monocytes; type: cell-based, human; settings: THP-1 cells, vs saline
Source text: (§1) Shared effects of Serp-1 and S-1, one of the active Serp-1 RCL peptide inhibitors for plaque growth, on transcription of representative genes in signaling pathways were studied in human Jurkat T cell (FIG. 5A and FIG. 5B) and THP-1 monocytes (FIGS. […]). […] Serp-1 and the Serp-1 peptides (serpin-derived peptides) S-1 and S-5 were compared to saline treated controls. Genes with two-fold change in expression with P-value less than 0.05 by Student's t-test were considered significant.
(§2) To further examine potential mechanisms of inhibitory activity for individual serpin peptides, THP-1 monocyte and Jurkat T cells in culture were treated with individual serpins or serpin-derived peptides with proven inhibitory activity for plaque growth in vivo (Viswanathan K, et al. (2009) B. J Leukoc Biol 85: 418-426; Viswanathan K, et al. (2006) Thromb Haemost 95: 499-510; Chen H, et al. (2013) Antimicrob Agents Chemother 57: 4114-4127; and Viswanathan K, et al. (2012) PLoS One 7: e44694). RT-PCR signaling pathway gene arrays (Sigma-Aldrich, St. Louis, Mo., USA) were analyzed in triplicate per cell type using predicted peptide or serpin treatment.

Jurkat T cells = test: RT-PCR signaling pathway gene expression analysis, Jurkat T cells; type: cell-based, human; settings: vs saline
Source text: as §1, §2

lethal viral sepsis = settings: in vivo; cited from earlier work

Q: For CC(C)C[C@H](NC(=O)[C@H](C)NC(=O)[C@H](CC(N)=O)NC(=O)[C@@H](N)CCCNC(=N)N)C(=O)O [S-3, RNAL] (H-RNAL-OH; N-terminus and C-terminus assumed), which “Adverse Events (number)” value ([1]; 15 μg/mouse) is on record?
A: 0

Q: With EVNEEGSEAAAVSGM [S-6] as the molecule, how does the “Adverse Events (kind)” value ([1]; 1.5 μg/mouse) read?
A: thrombosis

Q: And the “Adverse Events (number)” value ([1]; 1.5 μg/mouse)?
A: 1

Q: What about the “mortality (early thrombosis at site of aortic allograft transplant)” value ([1]; 15 μg dose) of the same molecule?
A: 100%

Q: What about the “Adverse Events (kind)” value ([1]; 15 μg/mouse) of the same molecule?
A: thromboses

Q: What about the “Adverse Events (number)” value ([1]; 15 μg/mouse) of the same molecule?
A: 6

Q: Which “Adverse Events (number)” value ([1]; 15 μg/mouse) does the source give for GTTASSDTAITLIPR [S-7] here?
A: 0

Q: For IAISRM [S-4, IAISRM], which “Adverse Events (number)” value ([1]; 15 μg/mouse) is on record?
A: 0

Q: What does the source list for IPRNAL [S-1, IPRNAL]?
A: Adverse Events (number) ([1]; 1.5 μg/mouse): 0; Adverse Events (kind) ([1]; 15 μg/mouse): thrombosis; also recorded: fighting injury; Adverse Events (number) ([1]; 15 μg/mouse): 1; Adverse Events (number) ([1]; 150 μg/mouse): 0

Q: For ISRMAV [S-2, ISRMAV], which “Adverse Events (kind)” value ([1]; 15 μg/mouse) is on record?
A: thrombosis

Q: What about the “Adverse Events (number)” value ([1]; 15 μg/mouse) of the same molecule?
A: 1

Q: For MAVLYPQVIVDHPFFFLIRNR [S-8], which “Adverse Events (number)” value ([1]; 15 μg/mouse) is on record?
A: 0

Q: What does the source list for TAIVANKPF [S-5]?
A: Adverse Events (number) ([1]; 1.5 μg/mouse): 0; Adverse Events (number) ([1]; 15 μg/mouse): 0; Adverse Events (number) ([1]; 150 μg/mouse): 0

B1: Serp-1: secreted myxomavirus-derived protein (serpin) that binds and inhibits uPA, tPA, plasmin and factor X (protein)
chain: RDIGLWTFRYVYNESDNVVFSPYGLTSALSVLRIAAGGNTKREIDVPESVVEDSDAFLALRELFVDASVPLRPEFTAEFSSRFNTSVQRVTFNSENVKDVINSYVKDKTGGDVPRVLDASLDRDTKMLLLSSVRMKTSWRHVFDPSFTTDQPFYSGNVTYKVRMMNKIDTLKTETFTLRNVGYSVTELPYKRRQTAMLLVVPDDLGEIVRALDLSLVRFWIRNMRKDVCQVVMPKFSVESVLDLRDALQRLGVRDAFDPSRADFGQASPSNDLYVTKVLQTSKIEADERGTTASSDTAITLIPRNALTAIVANKPFMFLIYHKPTTTVLFMGTITKGEKVIYDTEGRDDVVSSV
Q: For B1, which “IEx/IMon ratio (membrane fluidity)” value [2] is on record?
A: consistently reduced membrane fluidity significantly

Q: And the plasma half-life [3]?
A: 20 to 60 min

Q: What about the “early markers of myocardial damage” value [4] of the same molecule?
A: reduced early markers of myocardial damage

Q: And the “inhibition of uPA activity” value [5]?
A: inhibited; also recorded: dose dependent with greater inhibition at the higher concentration (500 ng)

Q: And the BRCA1 gene expression (THP-1 monocytes)?
A: induced

Q: And the “Selectin P ligand (CD162) gene expression” value (THP-1 monocytes)?
A: induced

Q: And the “cyclin-dependent kinase inhibitor 1B (CDKN1; p27) gene expression” value (THP-1 monocytes)?
A: induced

Q: And the “glycogen synthase (GYS) gene expression” value (THP-1 monocytes)?
A: induced

Q: What about the BCL-2 gene expression (Jurkat T cells) of the same molecule?
A: had no effect

Q: What about the TCF7 gene expression (Jurkat T cells) of the same molecule?
A: inhibited

Q: What about the “CCL 20 gene expression” value (Jurkat T cells; data not shown) of the same molecule?
A: had no effect

Q: What about the CCND-1 gene expression (Jurkat T cells; data not shown) of the same molecule?
A: had no effect

Q: What about the MMP7 gene expression (Jurkat T cells; data not shown) of the same molecule?
A: had no effect

Q: And the “interleukin-8 (IL-8) gene expression” value (Jurkat T cells; data not shown)?
A: had no effect

Q: What about the “survival in mouse models of lethal viral sepsis” value (lethal viral sepsis) of the same molecule?
A: improved survival

B2: NSP: mammalian serpin, neuroserpin, that binds tPA and uPA (protein)
chain: TGATFPEEAIADLSVNMYNRLRATGEDENILFSPLSIALAMGMMELGAQGSTQKEIRHSMGYDSLKNGEEFSFLKEFSNMVTAKESQYVMKIANSLFVQNGFHVNEEFLQMMKKYFNAAVNHVDFSQNVAVANYINKWVENNTNNLVKDLVSPRDFDAATYLALINAVYFKGNWKSQFRPENTRTFSFTKDDESEVQIPMMYQQGEFYYGEFSDGSNEAGGIYQVLEIPYEGDEISMMLVLSRQEVPLATLEPLVKAQLVEEWANSVKKQKVEVYLPRFTVEQEIDLKDVLKALGITEIFIKDANLTGLSDNKEIFLSKAIHKSFLEVNEEGSEAAAVSGMIAISRMAVLYPQVIVDHPFFFLIRNRRTGTILFMGRVMHPETMNTSGHDFEEL
Q: With B2 as the molecule, how does the “IEx/IMon ratio (membrane fluidity)” value [2] read?
A: consistently reduced membrane fluidity significantly

Q: And the “Adverse Events (kind)” value ([1]; 15 μg/mouse)?
A: thrombosis

Q: And the “Adverse Events (number)” value ([1]; 15 μg/mouse)?
A: 1

Q: What about the “inhibition of uPA activity” value [5] of the same molecule?
A: inhibited
